In patent US20250003951A1 (OXFORD UNIVERSITY INNOVATION, published 2025):

Columns and labels:
Assay in all cases: cell-based or functional assay
OX885-559 = biological target: T1, OX885-559 (human)
T1 peptide: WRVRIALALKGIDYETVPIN

OX885-560 = biological target: T2, OX885-560 (human)
T2 peptide: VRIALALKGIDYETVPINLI

OX289-067 = biological target: T3, OX289-067 (human)
T3 peptide: VATFPVYTMVAIPIVCKD

OX289-009 = biological target: T4, OX289-009 (human)
T4 peptide: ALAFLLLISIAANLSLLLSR

OX289-284 = biological target: T5, OX289-284 (human)
T5 peptide: GETGMFSLSTIRGHQYATY

B1: OX885 Peptides 559/560 clone 1 TCR (TCR, V domains shown)
V domain 1: GIQVEQSPPDLILQEGANSTLRCNFSDSVNNLQWFHQNPWGQLINLFYIPSGTKQNGRLSATTVATERYSLLYISSSQTTDSGVYFCAARRVDNNNDMRFGAGTRLTVKP
V domain 2: DARVTQTPRHKVTEMGQEVTMRCQPILGHNTVFWYRQTMMQGLELLAYFRNRAPLDDSGMPKDRFSAEMPDATLATLKIQPSEPRDSAVYFCASGLAQPQHFGDGTRLSILE
- Clone size (percent repertoire), IFNγ+ sorted T cells after peptide stimulation (OX885-559): 96.5 % of repertoire
- Clone size (percent repertoire), IFNγ+ sorted T cells after peptide stimulation (OX885-560): 96.5 % of repertoire

B2: OX289 Peptide 67 clone 1 TCR (TCR)
TCR alpha 1: QLLEQSPQFLSIQEGENLTVYCNSSSVFSSLQWYRQEPGEGPVLLVTVVTGGEVKKLKRLTFQFGDARKDSSLHITAAQPGDTGLYLCAGLDDKIIFGKGTRLHILPNIQNPDPAVYQLRD
TCR alpha 2: GIQVEQSPPDLILQEGANSTLRCNFSDSVNNLQWFHQNPWGQLINLFYIPSGTKQNGRLSATTVATERYSLLYISSSQTTDSGVYFCAVAGSNYQLIWGAGTKLIIKPDIQNPDPAVYQLRD
TCR beta: EAGVAQSPRYKIIEKRQSVAFWCNPISGHATLYWYQQILGQGPKLLIQFQNNGVVDDSQLPKDRFSAERLKGVDSTLKIQPAKLEDSAVYLCASSDPISGRGDEQFFGPGTRLTVLEDLKNVFPPEVAVFEPS
- Clone size (percent repertoire), IFNγ+ sorted T cells after peptide stimulation (OX289-067): 81.1 % of repertoire

B3: OX289 Peptide 9 clone 1 TCR (TCR, V domains shown)
V domain 1: RKEVEQDPGPFNVPEGATVAFNCTYSNSASQSFFWYRQDCRKEPKLLMSVYSSGNEDGRFTAQLNRASQYISLLIRDSKLSDSATYLCVVDFYTSGTYKYIFGTGTRLKVLA
V domain 2: GAVVSQHPSRVICKSGTSVKIECRSLDFQATTMFWYRQFPKQSLMLMATSNEGSKATYEQGVEKDKFLINHASLTLSTLTVTSAHPEDSSFYICSARDREAAGYGYTFGSGTRLTVVE
- Clone size (percent repertoire), IFNγ+ sorted T cells after peptide stimulation (OX289-009): 91.1 % of repertoire

B4: OX289 Peptide 284 clone 1 TCR (TCR)
TCR alpha: RKEVEQDPGPFNVPEGATVAFNCTYSNSASQSFFWYRQDCRKEPKLLMSVYSSGNEDGRFTAQLNRASQYISLLIRDSKLSDSATYLCVVNKATSGTYKYIFGTGTRLKVLANIQNPDPAVYQLRD
TCR beta 1: AVVSQHPSWVICKSGTSVKIECRSLDFQATTMFWYRQFPKQSLMLMATSNEGSKATYEQGVEKDKFLINHASLTLSTLTVTSAHPEDSSFYICSARDREAAGYGYTFGSGTRLTVVEDLNKVFPPEVAVFEPS
TCR beta 2: AVVSQHPSWVICKSGTSVKIECRSLDFQATTMFWYRQFPKQSLMLMATSNEGSKATYEQGVEKDKFLINHASLTLSTLTVTSAHPEDSSFYICSARLAHSGTNTGELFFGEGSRLTVLEDLKNVFPPEVAVFEPS
- Clone size (percent repertoire), IFNγ+ sorted T cells after peptide stimulation (OX289-284): 96 % of repertoire
